Measurements from patent US20130288372A1 (Bristol-Myers Squibb, published 2013).

Experiments:
[1] = target: T1, Human IL-23 (human, UniProt Q9NPF7 20-189; P29460 23-328); experiment: cell-based or functional assay
T1 sequence (looked up) 1: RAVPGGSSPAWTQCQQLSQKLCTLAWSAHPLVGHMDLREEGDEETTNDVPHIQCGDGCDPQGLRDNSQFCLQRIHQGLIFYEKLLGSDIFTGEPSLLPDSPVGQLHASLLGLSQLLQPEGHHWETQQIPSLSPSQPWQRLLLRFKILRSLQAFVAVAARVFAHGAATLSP
T1 sequence (looked up) 2: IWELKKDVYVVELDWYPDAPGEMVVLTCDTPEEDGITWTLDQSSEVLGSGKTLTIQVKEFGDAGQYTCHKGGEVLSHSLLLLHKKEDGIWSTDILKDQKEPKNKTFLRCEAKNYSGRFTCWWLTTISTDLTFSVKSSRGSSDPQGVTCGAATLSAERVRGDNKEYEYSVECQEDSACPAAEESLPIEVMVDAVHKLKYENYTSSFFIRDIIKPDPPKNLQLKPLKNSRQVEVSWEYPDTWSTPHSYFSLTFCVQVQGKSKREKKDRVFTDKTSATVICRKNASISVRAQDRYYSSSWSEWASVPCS

[2] = target: T1, Human IL-23; experiment: competitive ELISA, ratio of IC50 against parent 1454B08
Experimental: (§1) Adnectin variants were tested by ELISA for their ability to bind IL-23 in a manner that was competitive with the binding site of the native IL-23 receptor (IL-23R). Recombinant human IL-23R-Fc (R&D Systems, Minneapolis, Minn.) was coated overnight at 4° C. on a NUNC® Maxisorp plate (Thermo Fisher Scientific, Denmark) with 50 μL at 4 μg/mL in PBS. All washing was performed with PBST (PBS with 0.05% (w/v) Tween) using an automated plate washer (Biotek, Vt.). OptEIA buffer (BD Bioscience, CA) was used as block and assay diluent. Adnectin dilutions ranging from 200 nM to 28 pM were pre-incubated with 1 nM IL-23 for an hour before transferring to blocked IL-23R-Fc coated plates for 30 minutes. Bound IL-23 was detected via anti-IL-23 (GeneTex, CA) and anti-mouse-HRP (R&D Systems, MN) followed by TMB (3,3′,5,5′-tetramethylbenzidine) (BD Bioscience, CA) addition. Typical development time was 10 minutes. […] IC50s were generated from the average of four runs with an in-house curve fitting application.

[3] = target: T1, Human IL-23; experiment: competitive ELISA: Adnectin pre-incubated with 1 nM IL-23, binding to coated IL-23R-Fc
Experimental: as §1

[4] = target: T1, Human IL-23; experiment: SPR (Biacore T100), Adnectin captured by anti-His mAb, IL-23 injected, 25 C
Experimental: The anti-His antibody, mAb050 (RnD Systems, MN) was diluted to 20 μg/mL in acetate, pH 5.0 and immobilized to ˜9000 RU on flow cells 1 and 2 of a CM5 chip surface (GE Healthcare, Piscataway, N.J.) according to the manufacturer's instructions. All surface plasmon experiments were conducted in HBS-EP (10 mM Hepes 150 mM NaCl 3 mM EDTA 0.05% Surfactant P20) at 25° C. IL-23 was injected over anti-His mAb captured Adnectins for 2 minutes followed by a 10 minute dissociation phase. Kinetic parameters were calculated using the T100. Biaevaluation.

anti-p19 polyclonal antibody (AF1716)
pSTAT3 IC50 (nM) [1]: 36.5 nM

B1: Anti-IL-23 Adnectin 1866F10 (designed binder)
chain: MGVSDVPRDLEVVAATPTSLLISWDHDYPYRRYYRITYGETGGNSPVQEFTVPRNINTATISGLKPGVDYTITVYAVTSTLKYDIQYSPISINYRTEIDKPSQHHHHHH
pSTAT3 IC50 (nM) [1]: 0.06 nM

B2: 1454B08 Y81→A (designed binder)
chain: MGVSDVPRDLEVVAATPTSLLISWEHDYPYRRYYRITYGETGGNSPVQEFTVPKDVDTATISGLKPGVDYTITVYAVTSSYKADMQYSPISINYRTEIDKPSQHHHHHH
notes: Point variant of 1454B08
Activity (parent/mutant) [2]: 0.03 | IC50 [3]: 35 nM

B3: Anti-IL-23 Adnectin 1454F05 (designed binder)
chain: MGVSDVPRDLEVVAATPTSLLISWYMHYPYSRYYRITYGETGGNSPVQEFTVPKQHDTATISGLKPGVDYTITVYAVTSSYKYDMQYSPISINYRTEIDKPSQHHHHHH
notes: 10Fn3-based Adnectin expressed in E. coli followed by a HIS6 tag; Fn3 domain is positions 3-96 of the entry
Kd [4]: 4.75 nM | koff [4]: 0.000525 s⁻¹ | kon [4]: 111000 M⁻¹ s⁻¹

B4: 1454B08 T35→E (designed binder)
chain: MGVSDVPRDLEVVAATPTSLLISWEHDYPYRRYYRIEYGETGGNSPVQEFTVPKDVDTATISGLKPGVDYTITVYAVTSSYKYDMQYSPISINYRTEIDKPSQHHHHHH
notes: Point variant of 1454B08
Activity (parent/mutant) [2]: 1.7 | IC50 [3]: 0.6 nM

B5: Anti-IL-23 Adnectin 1454E09 (designed binder)
chain: MGVSDVPRDLEVVAATPTSLLISWMHDYPYRRYYRITYGETGGNSPVQEFTVPMEEDTATISGLKPGVDYTITVYAVTSSYKYDMQYSPISINYRTEIDKPSQHHHHHH
notes: as for B3
Kd [4]: 10.1 nM | koff [4]: 0.000569 s⁻¹ | kon [4]: 56600 M⁻¹ s⁻¹

B6: 1454B08 T35→D (designed binder)
chain: MGVSDVPRDLEVVAATPTSLLISWEHDYPYRRYYRIDYGETGGNSPVQEFTVPKDVDTATISGLKPGVDYTITVYAVTSSYKYDMQYSPISINYRTEIDKPSQHHHHHH
notes: Point variant of 1454B08; also called Thr35→Asp
Activity (parent/mutant) [2]: 0.02 | IC50 [3]: 49 nM

B7: Anti-IL-23 Adnectin 1454B05 (designed binder)
chain: MGVSDVPRDLEVVAATPTSLLISWYHDYPYRRYYRITYGETGGNSPVQEFTVPKDEETATISGLKPGVDYTITVYAVTSSYKYDMQYSPISINYRTEIDKPSQHHHHHH
notes: as for B3
Kd [4]: 2.27 nM | koff [4]: 0.000677 s⁻¹ | kon [4]: 298000 M⁻¹ s⁻¹

B8: 1454B08 T35→Q (designed binder)
chain: MGVSDVPRDLEVVAATPTSLLISWEHDYPYRRYYRIQYGETGGNSPVQEFTVPKDVDTATISGLKPGVDYTITVYAVTSSYKYDMQYSPISINYRTEIDKPSQHHHHHH
notes: Point variant of 1454B08
Activity (parent/mutant) [2]: 1 | IC50 [3]: 1 nM

B9: 1454B08 V75→Y (designed binder)
chain: MGVSDVPRDLEVVAATPTSLLISWEHDYPYRRYYRITYGETGGNSPVQEFTVPKDVDTATISGLKPGVDYTITVYAYTSSYKYDMQYSPISINYRTEIDKPSQHHHHHH
notes: Point variant of 1454B08
Activity (parent/mutant) [2]: 0.4 | IC50 [3]: 2.2 nM

B10: 1454B08 Y73→N (designed binder)
chain: MGVSDVPRDLEVVAATPTSLLISWEHDYPYRRYYRITYGETGGNSPVQEFTVPKDVDTATISGLKPGVDYTITVNAVTSSYKYDMQYSPISINYRTEIDKPSQHHHHHH
notes: Point variant of 1454B08
Activity (parent/mutant) [2]: 0.8 | IC50 [3]: 1.2 nM

B11: 1454B08 V45→D (designed binder)
chain: MGVSDVPRDLEVVAATPTSLLISWEHDYPYRRYYRITYGETGGNSPDQEFTVPKDVDTATISGLKPGVDYTITVYAVTSSYKYDMQYSPISINYRTEIDKPSQHHHHHH
notes: Point variant of 1454B08
Activity (parent/mutant) [2]: 1.2 | IC50 [3]: 0.83 nM

B12: 1454B08 P87→A (designed binder)
chain: MGVSDVPRDLEVVAATPTSLLISWEHDYPYRRYYRITYGETGGNSPVQEFTVPKDVDTATISGLKPGVDYTITVYAVTSSYKYDMQYSAISINYRTEIDKPSQHHHHHH
notes: Point variant of 1454B08
Activity (parent/mutant) [2]: 0.1 | IC50 [3]: 8.3 nM

B13: Anti-IL-23 Adnectin 1454F09 (designed binder)
chain: MGVSDVPRDLEVVAATPTSLLISWDHNYSYRRYYRITYGETGGNSPVQEFTVPRHTDTATISGLKPGVDYTITVYAVTSSYKYDMQYSPISINYRTEIDKPSQHHHHHH
notes: as for B3
Kd [4]: 7.45 nM | koff [4]: 0.000928 s⁻¹ | kon [4]: 125000 M⁻¹ s⁻¹

B14: Anti-IL-23 Adnectin 1454F07 (designed binder)
chain: MGVSDVPRDLEVVAATPTSLLISWYHMYSYRRYYRITYGETGGNSPVQEFTVPRDVDTATISGLKPGVDYTITVYAVTSSYKYDMQYSPISINYRTEIDKPSQHHHHHH
notes: as for B3
Kd [4]: 9.43 nM | koff [4]: 0.000447 s⁻¹ | kon [4]: 47400 M⁻¹ s⁻¹

B15: 1454B08 V75→Q (designed binder)
chain: MGVSDVPRDLEVVAATPTSLLISWEHDYPYRRYYRITYGETGGNSPVQEFTVPKDVDTATISGLKPGVDYTITVYAQTSSYKYDMQYSPISINYRTEIDKPSQHHHHHH
notes: Point variant of 1454B08
Activity (parent/mutant) [2]: 0.4 | IC50 [3]: 2.3 nM

B16: 1454B08 T35→N (designed binder)
chain: MGVSDVPRDLEVVAATPTSLLISWEHDYPYRRYYRINYGETGGNSPVQEFTVPKDVDTATISGLKPGVDYTITVYAVTSSYKYDMQYSPISINYRTEIDKPSQHHHHHH
notes: Point variant of 1454B08
Activity (parent/mutant) [2]: 0.6 | IC50 [3]: 1.7 nM

B17: 1454B08 V75→K (designed binder)
chain: MGVSDVPRDLEVVAATPTSLLISWEHDYPYRRYYRITYGETGGNSPVQEFTVPKDVDTATISGLKPGVDYTITVYAKTSSYKYDMQYSPISINYRTEIDKPSQHHHHHH
notes: Point variant of 1454B08
Activity (parent/mutant) [2]: 0.2 | IC50 [3]: 5.7 nM

B18: 1454B08 Y73→Q (designed binder)
chain: MGVSDVPRDLEVVAATPTSLLISWEHDYPYRRYYRITYGETGGNSPVQEFTVPKDVDTATISGLKPGVDYTITVQAVTSSYKYDMQYSPISINYRTEIDKPSQHHHHHH
notes: Point variant of 1454B08; also called Tyr 73→Gln
Activity (parent/mutant) [2]: 3.8 | IC50 [3]: 0.26 nM

B19: 1454B08 Y28→A (designed binder)
chain: MGVSDVPRDLEVVAATPTSLLISWEHDYPARRYYRITYGETGGNSPVQEFTVPKDVDTATISGLKPGVDYTITVYAVTSSYKYDMQYSPISINYRTEIDKPSQHHHHHH
notes: Point variant of 1454B08
Activity (parent/mutant) [2]: 0.08 | IC50 [3]: 13 nM

B20: 1454B08 V45→E (designed binder)
chain: MGVSDVPRDLEVVAATPTSLLISWEHDYPYRRYYRITYGETGGNSPEQEFTVPKDVDTATISGLKPGVDYTITVYAVTSSYKYDMQYSPISINYRTEIDKPSQHHHHHH
notes: Point variant of 1454B08
Activity (parent/mutant) [2]: 1.9 | IC50 [3]: 0.51 nM

B21: 1454B08 V45→Q (designed binder)
chain: MGVSDVPRDLEVVAATPTSLLISWEHDYPYRRYYRITYGETGGNSPQQEFTVPKDVDTATISGLKPGVDYTITVYAVTSSYKYDMQYSPISINYRTEIDKPSQHHHHHH
notes: Point variant of 1454B08
Activity (parent/mutant) [2]: 2.9 | IC50 [3]: 0.34 nM

B22: 1454B08 V45→N (designed binder)
chain: MGVSDVPRDLEVVAATPTSLLISWEHDYPYRRYYRITYGETGGNSPNQEFTVPKDVDTATISGLKPGVDYTITVYAVTSSYKYDMQYSPISINYRTEIDKPSQHHHHHH
notes: Point variant of 1454B08
Activity (parent/mutant) [2]: 1.8 | IC50 [3]: 0.54 nM

B23: 1454B08 Y73→R (designed binder)
chain: MGVSDVPRDLEVVAATPTSLLISWEHDYPYRRYYRITYGETGGNSPVQEFTVPKDVDTATISGLKPGVDYTITVRAVTSSYKYDMQYSPISINYRTEIDKPSQHHHHHH
notes: Point variant of 1454B08
Activity (parent/mutant) [2]: 0.8 | IC50 [3]: 1.2 nM

B24: 1454B08 Y73→A (designed binder)
chain: MGVSDVPRDLEVVAATPTSLLISWEHDYPYRRYYRITYGETGGNSPVQEFTVPKDVDTATISGLKPGVDYTITVAAVTSSYKYDMQYSPISINYRTEIDKPSQHHHHHH
notes: Point variant of 1454B08
Activity (parent/mutant) [2]: 1.5 | IC50 [3]: 0.65 nM
